These are literature values, as cited in article PMC12609503.

Data set [1] deals with GnRH receptor (LN-CaP cells) (Homo sapiens) (UniProt P30968). The data set can be described thus: cell binding assay.
The target of data set [2] is GnRH receptor (pituitary membrane) (Rattus norvegicus) (UniProt P30969). The data set can be described thus: radioligand saturation binding.
Chain of UniProt P30969 (P30969 whole entry): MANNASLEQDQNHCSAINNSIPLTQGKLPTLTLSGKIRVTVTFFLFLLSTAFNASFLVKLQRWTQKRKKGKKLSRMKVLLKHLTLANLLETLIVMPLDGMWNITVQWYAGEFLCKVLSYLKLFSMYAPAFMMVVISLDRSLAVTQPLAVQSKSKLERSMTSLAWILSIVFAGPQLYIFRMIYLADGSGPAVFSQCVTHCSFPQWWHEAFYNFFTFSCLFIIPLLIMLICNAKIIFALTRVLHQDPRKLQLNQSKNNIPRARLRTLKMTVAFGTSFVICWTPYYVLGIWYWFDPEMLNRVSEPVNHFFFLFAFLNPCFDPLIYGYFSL

Chain of UniProt P30968 (P30968 whole entry): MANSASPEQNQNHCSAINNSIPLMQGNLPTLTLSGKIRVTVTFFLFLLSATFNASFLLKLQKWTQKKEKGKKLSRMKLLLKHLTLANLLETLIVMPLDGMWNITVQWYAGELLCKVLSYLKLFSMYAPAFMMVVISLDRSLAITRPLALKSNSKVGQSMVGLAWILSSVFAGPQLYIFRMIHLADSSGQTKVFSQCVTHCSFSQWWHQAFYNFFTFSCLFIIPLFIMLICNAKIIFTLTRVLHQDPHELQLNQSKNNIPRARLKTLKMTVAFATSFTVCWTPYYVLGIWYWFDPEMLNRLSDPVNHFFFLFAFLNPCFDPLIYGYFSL

Consider “99mTc-HYNIC-Ahx-DLys6-GnRH (from UniProt P01148)”, for which the equilibrium dissociation constant (Kd) in data set [1] is 42 nM.

As for “99mTc-HYNIC-GABA-DLys6-GnRH (from UniProt P01148)”, in data set [1], the Kd was 89 nM.

On to 125I-LHRH (from UniProt P01148), for which the Kd in data set [2] is 0.435 nM.

By Kd is commonly meant the equilibrium constant for the complex coming apart.
